Experimental data reported in patent publication US20210087265A1 (PROGASTRINE ET CANCERS S R L, published 2021).

T1: human progastrin (human, UniProt P01350 22-101)
T1 construct: 80-residue progastrin, i.e. preprogastrin (AAB19304.1) without its 21-residue signal peptide; also called hPG; PG
T1 sequence: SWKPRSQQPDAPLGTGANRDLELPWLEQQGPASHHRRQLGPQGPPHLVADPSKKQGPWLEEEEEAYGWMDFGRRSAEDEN

B1: mAb13 (antibody, V domains shown)
VH: EVQLVESGGGLVQPGGSLKLSCAASGFIFSSYGMSWVRQSPDRRLELVASINTFGDRTYYPDSVKGRFTISRDNAKNTLYLQMTSLKSEDTAIYYCARGTGTYWGQGTTLTVSS
VL: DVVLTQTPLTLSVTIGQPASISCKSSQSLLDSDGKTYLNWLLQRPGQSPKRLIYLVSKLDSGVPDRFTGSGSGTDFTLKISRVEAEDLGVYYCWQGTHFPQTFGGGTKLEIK
notes: Murine monoclonal antibody from a hybridoma; also called hybridoma 2C6C3C7
B2: mAb4 (antibody, V domains shown)
VH: QVQLQQSGAELMKPGASVKISCKATGYTFSSSWIEWLKQRPGHGLEWIGEFLPGSGSTDYNEKFKGKATFTADTSSDTAYMLLSSLTSEDSAVYYCATDGNYDWFAYWGQGTLVTVSA
VL: DLVMTQTPLSLPVSLGDQASISCRSSQSLVHSSGVTYLHWYLQKPGQSPKLLIYKVSNRFSGVPDRFSGSGSGTDFTLKISRVEAEDLGVYFCSQSTHVPPTFGSGTKLEIK
notes: Murine monoclonal antibody from a hybridoma; also called hybridoma 20D2C3G2
B3: mAb3 (antibody, V domains shown)
VH: EVQLQQSGTVLARPGASVKMSCKASGYIFTSYWVHWVKQRPGQGLEWIGGFYPGNSDSRYNQKFKGKATLTAVTSASTAYMDLSSLTNEDSAVYFCTRRDSPQYWGQGTTLTVSS
VL: DVLMTQTPLSLPVSLGDQASISCRSSQSIVHSNGNTYLEWYLQKPGQSPKLLIYKVSNRFSGVPDRFSGSGSGTDFTLKISRLEAEDLGVYYCFQGSHVPFTFGGGTKLEIK
notes: Murine monoclonal antibody from a hybridoma; also called hybridoma 6B5B11C10
B4: mAb19 (antibody, V domains shown)
VH: DVQLQESGPGLVKPSQSLSLTCTVTGYSITSDYAWNWIRQFPGNKLEWMGYISFSGYTSYNPSLKSRISVTRDTSRNQFFLQLTSVTTEDTATYYCAREVNYGDSYHFDYWGQGTIVTVSS
VL: QLALTQSSSASFSLGASAKLTCTLSSQHRTYTIEWYQQQSLKPPKYVMEVKKDGSHSTGHGIPDRFSGSSSGADRYLSISNIQPEDEAIYICGVGDAIKGQSVFVFGGGTKVTVL
notes: Murine monoclonal antibody from a hybridoma; also called hybridoma 1B3B4F11
B5: mAb16 (antibody, V domains shown)
VH: QVQLQQSGAELVKPGASVKLSCKASGYTFTSYYMYWVKQRPGQGLEWIGEINPSNGGTNFNEKFKSKATLTVDKSSSTAYMQLSSLTSEDSAVYYCTRGGYYPFDYWGQGTTLTVSS
VL: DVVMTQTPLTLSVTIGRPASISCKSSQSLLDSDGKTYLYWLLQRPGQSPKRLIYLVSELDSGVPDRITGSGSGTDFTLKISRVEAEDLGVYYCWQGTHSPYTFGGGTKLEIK
notes: Murine monoclonal antibody from a hybridoma; also called hybridoma 1E9D9B6

target: T1, human progastrin; test: epitope mapping (method not described)

Q: Does B1 bind?
A: Result: binds

Q: Does B2 bind?
A: Result: binds

Q: Does B3 bind?
A: Result: binds

Q: Does B4 bind?
A: Result: binds

Q: Does B5 bind?
A: Result: binds
